Biological target: singly biotinylated A20 zinc finger 4 (ZnF4: S592-K635) (human) (UniProt P21580)
Assay: BLI

singly biotinylated A20 zinc finger 4 (ZnF4: S592-K635) (human), sequence (P21580 592-635): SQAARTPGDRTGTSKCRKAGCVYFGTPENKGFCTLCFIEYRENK

Question: For “K63-linked triubiquitin (from UniProt P0CG48 1-76)”, which Kd is on record?
Answer: The Kd was 2000 nM.

From article PMC9680732
